Results from patent US9700619B2, “Combination drug therapy for the treatment of solid tumors” (Duke University, priority 2011, dated 2017).

Legend:
skin = assay: Dermapathology evaluation of cutaneous biopsies from study subjects; format: in vivo, human
Text: Dose escalation was complete with 17 subjects evaluable for DLT toxicity and 16 evaluable for efficacy (see Table 2). […] One non-treatment-related death was due to disease progression. […] Twelve subjects have available efficacy data; 4 subjects have not yet been restaged. Two subjects with refractory NSCLC achieved a complete response. Six additional subjects had stable disease as best response.

[1] = tested on: patients with advanced solid tumors; assay: Phase I study of ganitumab plus everolimus: DLT, MTD/RPTD and adverse events (NCI Common Toxicity Criteria version 4.0); format: in vivo; settings: subjects on G+E, summary
Description: The maximum tolerated doses/recommended phase II dose for the doublet combination, ganitumab (G) plus everolimus (E) followed by an expanded cohort was evaluated to better understand the safety and tolerability profile of this drug combination.
The primary objective of this study was to determine the maximum tolerated dose (MTD) and Recommended Phase II Dose (RPTD) of G+E in patients with advanced solid tumors. Secondary objectives were to describe any toxicities associated with this regimen and to preliminarily describe clinical activity (progression-free survival (PFS)), overall survival (OS), partial response (PR), complete response (CR) or stable disease (SD)>6 months.
For dose escalation, eligible patients had advanced solid tumors with adequate organ function and no increased risk for class-related toxicities. G was given intravenously, and E was orally administered; cycle length was 28 days. Stage I was a dose escalation; cohort size: 3-6 patients; Stage II was an expansion at MTD with a cohort size of 20 patients.
An intermediate dose of E at 5 mg five times weekly was added to better maximize dose intensity. Dose limiting toxicity (DLT) was assessed in cycle 1.
AEs were graded according to the NCI Common Toxicity Criteria version 4.0. Efficacy was assessed every 2 cycles with computed tomography (CT) using Response Evaluation Criteria in Solid Tumors (RECIST 1.1) guidelines.

With ganitumab the “Finding in the third cutaneous biopsy” value (skin; interpreted as part of the skin toxicity to G) was “spongiotic dermatitis with mixed inflammatory infiltrate with abundant eosinophils”, the “Cutaneous biopsies revealing hypersensitivity reaction in the form of superficial perivascular dermatitis” value (skin; mild perivascular lymphocytic infiltrate with eosinophils, subjects on G+E) was 2 out of 3 and the Skin toxicities [1] was “consistent with hypersensitivity to Ganitumab”.
